Experimental data as given in the DeepSol protein solubility set.

Assay: soluble on expression in E. coli; label from the status in PepcDB or PDB records

Sequence	soluble on expression in E. coli
MSLSKKFYPNSQAFLLEKKDLKTIDRKINANKGNFGHIYIVANASAGTLAGLGALNFGAGLVSLVAQKSFSPLLMLKEKIENNASAIALGMGLENLDFLKDEILQNTPLILDANCFLSEALLWYLNRKDVVITPHPKEFIKLYKMCFDENLDIETLQKNRFFYARKFSQNYDCVLVLKGANPIIVQKEKLFVVNLGNQALAKGGSGDVLSGMIAAHLGFGFSALEAAKNATLAHGLVAKKYKFNKNSFDALKLIKGLKCLEGHHHHHH	not soluble
MSLSKREEWAQGFILNLQSGYTQGTVGFGLDAMGMLGVKLDSGRGRSGTGLLPKDSDGRAPDTYSKLGLTAKVKVSQSELKVGTLIPKLPSVQPNNGRIFPQIFEGALLTSKEIKDLGFTAGRLEKTKIRDSSDSEDLALNDKNGRFAGVSADHFDLGGLDYKLTDQLTASYHYSNLQDVYRQHFVGLLHSWPIGPGELTSDLRFARSTDSGSAKAGGIDNKSLNGMFTYSLGNHAFGAAWQRMNGDDAFPYLEGSNPYLVNFVQVNDFAGPKERSWQLRYDYDFVGLGIPGLTFMTRYVKGDNVELAGQSGEGREWERNTELQYVFQSGALKNLGIRWRNATFRSNFTRDIDENRLIVSYTLPIWEGHHHHHH	not soluble
MSLSKTRTFLFDLYGVLIKEHGAAQFERVARAVGEPSKNDKLHEVYESLRLDLDAGRVSEVNYWNQIKLLVGLEFLDIQEVIAADYRGLYERDQDMVDYVLSLKAKGHRIGILSNIPEGLAKLLKEHNSEWLDQLDAVTLSCDIGAAKPEPKSFHVALEALGEKAEDVTFIDDRVRNIEAAREEGLSTIHFTGLDSLKESIQEGHHHHHH	soluble
MSLSLVSQYIDLTEHFQNLIAVILKNPEKVWQMQLNYLEDALSLAQAQFNYWLEGKPLPINDQRFNGEDWINNPFFNLLSQHYLLANEHMNSLLENMEYGDENLAKRVRFFTRQYLDALSPANFIHTNPQLMAETLQSHGKNLLRGLHNLLSDVEAGSSRLIIKMTDTEAFKIGENLATTPGKVIFRNSMMELIQYCPRTTKAKSIPLLIVPPWINKYYILDLSPHNSLIRWLVEQGITVFIISWVNPDETYANKSFYDYLNEGPREAISVIQKQLRVKQVNTLGFCIGGTLLASLLAYNKATKDLSIRSATFLAAMIDFSDPGDIAVFIDEQQINKLEEEMKSKGYLAGKFMASSFNSLRANDLIWSFFIKNYLRGKSPVPFDILYWNADSTNMPATMHSQYLRWMYLHNNLIKPGKIRLNHIPVDVTNIDIPTFFLSTQKDHIAPWKTTYKGFELMKGPKRFVLGGSGHIAGIINPPTQQKYGYRTNNSMDLSAEQWFEKSKEHSGSWWPEWLNWLKLHSGRLINAPDINHLPFAPIMDAPGSYVLKKEGHHHHHH	soluble
MSLSNAEITHREGVKMLVVRPISMADYEALHTCAVESGHGFTSLPVDQELLTNRITHSEYSFSKPNVTMPGDEGYLMVGVDTETGQVAGTTGIEASIGWDVPFYSYHISTIVHSSPKLGVNNVVKLLTFGNNYTGCSEICTLFLRPQYRQGLNGRLMSKCRFLMMAEHSHRFSKTIFAEMRGVSDADGNSPFWKWLQEHFFSIDFTLADYLTGIGKKGFIADLMPKLPIYVNLLSKEAQAVIGQVHENTRPALVLLEKEGFTCRNYVDIFDAGPTVECELNNIESVRHSVRAIVEVAEHSSSQNFIMCNTSFENFRATAAKAAYSQEDNAVIISPKVAAALEVSTGDYLRILAQEGHHHHHH	soluble
MSLSNAMTSKLERFIDQGVGRVPADIVLKGGCFFDLVTGELVQSDIAIGADRIVGTSGNYEGETEIDISGRIVVPGFIDTHLHIESSLVTPHEFDRCVLPYGVTTAICDPHEIANVLGAAGIEFFLESALETIMDIRVQLSSCVPATHLETSGADLPIESLLPYRHHPKVIGLAEFMNFPGVIHKDPICMAKLDAFQGGHIDGHAPLLSGNDLNGYLAAGIRTEHECTTASEALEKIRKGVHILVREGSVSKDLAALMPIITERLSPFLALCTDDRNPLDIAEQGHLDHMIRTAIASRVEPLAIYRAASISAARAFGLKDRGLVAPGWRADLVVLDSLENCRADMVFSAGRRVTDALFSSRRPVAPIGLDSVKARPVNAAHFGVPVAEGETPVIGVIPGKIITEHRRYRLPVRGNEAAVDLANDIIKVAVIERHGKNGNHANGFVQGFGLKKGAIASTVGHDSHNICVVGVSEDDMARAANRLSEIKGGFVVVEDGKVTGEIALPIAGLMSLEPYETVRDTLHQLRKAAFALGATLEEPFLQLAFLPLPVIPHLKISDRGMVDVDKFALIGEGHHHHHH	soluble
MSLSNSLLPPNASGLERDIEQVIVQSTDLPIRIKDLWNPYSCHLSLLPWLAWALSVDEWDDRWPEHIKRQVVQDSFDVHRFKGTPYAVQKALDSLNIKTHLREWWEPDGSQEPGTMTVVALINENLTDDDNGLITEAMLEQVTRVIHTAKRGVIHFDVELGISLDETLGFSGAIGPSIAEIDFSSDFLPIVPEKGSADMAFSAALYGIGSADFLADMSGVVPDESSSHVFVCGGLAGISASWLEFEGDLEGHHHHHH	soluble
MSLSNTPIELKGSSFTLSVVHLHEAEPEVIRQALEDKIAQAPAFLKHAPVVINVSGLESPVNWPELHKIVTSTGLRIIGVSGCKDASLKVEIDRMGLPLLTEGKEKAVRPAPVEPATPSEPPQNANPITKTRLIDVPVRSGQRIYAPQCDLIVTSHVSAGAELIADGNIHVYGMMRGRALAGASGDREAQIFCTHLTAELVSIAGVYWLSDKIPAEFYGKAARLRLADNALTVQPLNEGHHHHHH	soluble
MSLSPPILVGFSGPLTGVNSDLGVQGRNGAQLAIEHINAGGGINGRQLELLSMDDGPTAESARDADSALLRQGVVAIIGHMTSNQAIAGLPVVEQHGAVMIAPTVSTPLLTGKRDGFFRLMPDNDSWAYATADYALAQGLKTVSVIYETANQAFAGSFVDGFVTQFEAGGGRLLQRIPFTSAQRDTLEAAAIRAVSTNPDTIVLAASARDTAALAQFIDAHDSPRPVLLSSSWAYTREIFLAGGRAVEGIVFTISYLPDDTREGYLAFRKAYTERFGWEPNFAAALAYESAKVLAAALRRTGGRAQGLREALAAGTPVQGISETVTLDQYGDVQRPPYIVTIRNGEFVSIQEGHHHHHH	soluble
MSLSRTTQLPFAKRQFFQVLARNYSNTQDADLVVIGGGPGGYVAAIKAAQLGMKTVCVEKNATLGGTCLNVGCIPSKALLNNSHYLHMAQHDFAARGIDCTASLNLPKMMEAKSNSVKQLTGGIKQLFKANKVGHVEGFATIVGPNTVQAKKNDGSVETINARNILIASGSEVTPFPGITIDEKQIVSSTGALSLGQVPKKMVVIGAGVIGLELGSVWQRLGAEVTAVEFLGHVGGMGIDGEVSKNFQRSLTKQGFKFLLNTKVMGASQNGSTITVEVEGAKDGKKQTLECDTLLVSVGRRPYTEGLGLSNVQIDLDNRGRVPVNERFQTKVPSIFAIGDVIEGPMLAHKAEDEGILCVEGIAGGPVHIDYNCVPSVVYTHPEVAWVGKAEEQLKQEGVAYKIGKFPFVANSRAKTNNDQEGFVKVLADKQTDRMLGVHIIGPNAGEMIAEATLAMEYGASAEDVARVCHPHPTLSEAFREANLAAYCGKAINNV	not soluble
MSLSSAQQWSYVRQLQREIRRSDVLDLPLEKLPVVVFDLETSGFYPDQGDRILSIGAVKVVGLTIQEEETFYSVVHTDTVPPENILELTGLSVEELEAAPPLTSVLESFYAFIRHSTLVAHHASHEKAFMSHVTWQTMKLPFEHRVIDTSFLTKIVAPQELVTLDDCCAYYSIPVQNRHHAFEDSLMTAKLWIAAIAAAREAGFETLRDIYVHLAHQREGHHHHHH	soluble
MSLSSCEVLTSLGERMILIRGLTRVITFDDQERELEDADILIDGPKIVAVGKDLSDRSVSRTIDGRGMIALPGLINSHQHLYEGAMRAIPQLERVTMASWLEGVLTRSAGWWRDGKFGPDVIREVARAVLLESLLGGITTVADQHLFFPGATADSYIDATIEAATDLGIRFHAARSSMTLGKSEGGFCDDLFVEPVDRVVQHCLGLIDQYHEPEPFGMVRIALGPCGVPYDKPELFEAFAQMAADYDVRLHTHFYEPLDAGMSDHLYGMTPWRFLEKHGWASDRVWLAHAVVPPREEIPEFADAGVAIAHLIAPDLRMGWGLAPIREYLDAGITVGFGTTGSASNDGGNLLGDLRLAALAHRPADPNEPEKWLSARELLRMATRGSAECLGRPDLGVLEEGRAADIACWRLDGVDRVGVHDPAIGLIMTGLSDRASLVVVNGQVLVENERPVLADLERIVANTTALIPKNLEGHHHHHH	not soluble
MSLSSDMEGGMITMKANDTTKYLIHAEIEAEGVVERPDVVGAIFGQTEGLLGGDLDLRELQKTGRIGRIEVKIESKGGRSFGEIKVPSSLDKVETAILAAALETIERVGPCSAKIKVLKIEDVRASKRKRIVERAMNILREHFEEPEIESERIVEIVRQAIRADEIVEYGEEKLPAGPAIDESDAIIVVEGRADVLNLLKHGIKNVIAVEGTNIPKTIVELSKKKTVTAFLDGDRGGDLILKELLQVAEVDYVARAPEGKEVEDLTQKEILKSLRNKVPVEQLHVLKKEAKEGREREKLAEMPKDSISDVLRKHTESVKGRLTARVLDRNLNVIKEVPVRDLVKILKTNNMKGSAIVFDGIITQRLIDLAAKKEFDYIVGVRLGSVVKVPTSLRVITFDQLEGHHHHHH	not soluble
MSLSSDSQEIRRSILSKWHKTLSKYGNLFSSDTISGTSPPSVFVGSYNYPKVFVGPMVPPIHGDTSLLDSPEKWKGRSLEEIINFRLNLVRGIHKTGIEHTEGRYIENLQEITMSEKPTDLDLVFMKNTSSNISMDGESAPFGPTGEIKSAKFSGSSSTKPIEKIFYDKDMKAQDAVLKLYNSGIEISKIQKCFSIGMLGKKRKLVPTKWSITATDDIISKSIVKEILENSIIDTCKVFSYEHLGNVFSVILFPHRWIFEMIEGWYSNGILGFGSDSEDARGIDHPPRIAGAYFAAKLGVSEYLLKNKIQAGVLIFREIRPEYAIPVGVWQVREGIREAMKQKPQIVSDFNHALNLASAKTSVSKKEWIVNGDMINRVRQKTILDFMEGHHHHHH	not soluble
MSLSSEHIQNKLALLPDQPGCYLMKDRQGTIIYVGKAKILKNRVRSYFSGTHDSKTQRLVQEIVDFEYIVTSSNVEALLLEINLIKKHDPRFNIRLKDDKTYPFIKITNERHPRLIITRQVKKDKGKYFGPYPNVYAANEVKRILDRLYPLRKCSTLPNKVCLYYHLGQCLAPCVFDVEASKYKEMQDEIVTFLNGGYKTVKNDLMKKMQEAAENMEFEKAGEFRDQINAIETTMEKQKMTMNDFVDRDVFGYAIDKGWMCVQVFFIRQGKLIERDVSQFPFYNDADEDFLTFIGQFYQKANHIPPKEIYLPDDVDSEAVQAVVPDTKIIVPQRGNKKDLVKLAYKNAKIALNEKFMLLERNEERTVGAVERLGEAMGIPTPSRVEAFDNSNIHGTDPVSAMVTFLDGKPSKNDYRKYKIKTVEGPDDYATMREVIRRRYWRVLKEELPMPDLILIDGGKGQIDSAKDVLTNELGLDIPVAGLAKDDKHRTSQLLFGDPLEIVPLERNSQEFYLLQRMQDEVHRFAITFHRQLRSKTGFQSILDGIPGVGPGRKKKLLKHFGSMKKLKEASVEEIKEAGVPLNVAEEVHKHITAFNEGHHHHHH	soluble
